# Measured values from the supplement of paper PMC10065799, “High-throughput profiling of sequence recognition by tyrosine kinases and SH2 domains using bacterial peptide display” (eLife, 2023).
# Target: EPHB2 (UniProt P29323)
# Assay: phosphorylation enrichment, bacterial display (enrichment ratio); higher = better substrate or ligand; peptides without Tyr show the background
# 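Further: 11-residue human phosphosite peptides and single-mutation variants displayed on the E. coli surface, counted by deep sequencing, each peptide's frequency after selection divided by its frequency in the unselected input library; frequency after pTyr selection over input frequency; kinase dosed for 20-30% of maximal phosphorylation in three min.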
# Sequence of EPHB2 (P29323 whole entry, looked up): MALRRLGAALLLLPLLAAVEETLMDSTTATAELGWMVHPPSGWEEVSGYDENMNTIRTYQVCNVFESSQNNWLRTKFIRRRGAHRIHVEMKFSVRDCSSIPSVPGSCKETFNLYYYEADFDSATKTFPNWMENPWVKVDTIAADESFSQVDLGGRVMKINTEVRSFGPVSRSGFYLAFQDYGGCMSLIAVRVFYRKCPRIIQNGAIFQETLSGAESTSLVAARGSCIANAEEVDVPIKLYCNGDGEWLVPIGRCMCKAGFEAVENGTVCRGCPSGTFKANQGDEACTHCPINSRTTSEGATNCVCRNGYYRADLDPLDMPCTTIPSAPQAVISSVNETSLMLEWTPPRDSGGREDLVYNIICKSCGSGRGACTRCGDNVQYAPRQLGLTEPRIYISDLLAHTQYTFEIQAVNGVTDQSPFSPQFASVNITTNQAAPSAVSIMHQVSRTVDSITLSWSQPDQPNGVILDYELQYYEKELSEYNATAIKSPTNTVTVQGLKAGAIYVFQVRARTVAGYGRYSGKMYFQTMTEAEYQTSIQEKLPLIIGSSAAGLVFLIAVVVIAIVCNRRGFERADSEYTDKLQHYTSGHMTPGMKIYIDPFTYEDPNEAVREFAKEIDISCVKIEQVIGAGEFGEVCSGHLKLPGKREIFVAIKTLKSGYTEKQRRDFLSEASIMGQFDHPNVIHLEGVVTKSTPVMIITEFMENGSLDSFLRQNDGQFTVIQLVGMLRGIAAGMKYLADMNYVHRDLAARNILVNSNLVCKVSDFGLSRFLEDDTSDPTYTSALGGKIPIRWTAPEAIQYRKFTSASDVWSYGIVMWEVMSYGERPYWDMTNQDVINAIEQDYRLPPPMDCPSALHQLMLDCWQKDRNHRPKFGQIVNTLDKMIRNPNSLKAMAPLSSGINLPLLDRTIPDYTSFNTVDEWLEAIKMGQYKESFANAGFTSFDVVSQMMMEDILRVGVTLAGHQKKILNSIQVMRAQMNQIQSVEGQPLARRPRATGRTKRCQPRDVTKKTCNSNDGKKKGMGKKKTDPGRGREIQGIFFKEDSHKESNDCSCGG
row,Sequence,phosphorylation enrichment
1,LKEIRYPPYTD [ALDH3B2_Y362_H361R],0.589
2,RHTRSYDFMEG [FGF7_Y56_YF],0.792
3,RGRSTYYWPSP [GAGE12J_Y9_R13S],0.871
4,SVTCTYCPALN [TP53_Y126_S127C],0.413
5,EYFENYIEELK [PARP4_Y218],0.647
6,CNSFRYGGGGG [NPPA_Y151],0.552
7,TKEPKYEGAGS [KIAA1210_Y1615],0.337
8,IVAREYFSEAD [CAMK2A_Y106_YF],0.657
9,HSSPVYVGRVV [TGM2_Y219_R214H],1.47
10,GEEIKDMLWLS [OTC_Y55_Y55D],0.462
11,NDDDVYRSLEE [VAV2_Y142],0.722
12,PLGPLYASSNP [INSR_Y992],1.01
13,AGIENYTSRFG [NKD2_Y256],0.386
14,VCDALYPPGPP,0.329
15,EVESPYEVRDY [GIGYF2_Y1168_H1171R],0.752
16,RPDSPYSRPHD [DOK2_Y271],0.49
17,EPVSDYINASI [PTPN11_Y304_N308S],0.566

row,Sequence,phosphorylation enrichment
1,RIFDFYSARKA [STOX1_Y858_YF],0.847
2,SFPPTYRFERG [INPPL1_Y661_YF],0.626
3,SLEKSYELLDG [ACTB_Y240_P243L],0.584
4,LKSEMYQKLLK [RGS13_Y146],0.925
5,PELINYHQPNS [BTK_Y361_H364P],0.727
6,ISTAGYSFPEL [EDAR_Y406_I408F],0.523
7,GSSEGYLHMVH [NIPBL_Y247_D246G],0.427
8,NCLREYVAGRF [CRB1_Y711],0.554
9,LFIDSYEKDVA [PGM1_Y521_YF],0.755
10,WDLSEYSFKDP [ITGA3_Y237_YF],0.618
11,AARVSYWLASG [DCHS1_Y1582_R1583W],0.732
12,LITTLYIDFLG [KCNQ1_Y267_G269D],1.06
13,CPSLLYSPVSS [CAMKK2_Y128_P127L],4.13
14,GEEIKYMLWLS [OTC_Y55],0.62
15,MGRVNYGAYIN [GLB1_Y485],0.486
16,LDPMVYMNDTS [PTK2B_Y834_K838T],0.734

# System: AncSZ
# Assay: as above
row,Sequence,phosphorylation enrichment
1,LKEIRYPPYTD [ALDH3B2_Y362_H361R],0.761
2,RHTRSYDFMEG [FGF7_Y56_YF],0.848
3,RGRSTYYWPSP [GAGE12J_Y9_R13S],2.12
4,SVTCTYCPALN [TP53_Y126_S127C],0.84
5,EYFENYIEELK [PARP4_Y218],1.44
6,CNSFRYGGGGG [NPPA_Y151],0.857
7,TKEPKYEGAGS [KIAA1210_Y1615],0.614
8,IVAREYFSEAD [CAMK2A_Y106_YF],1.09
9,HSSPVYVGRVV [TGM2_Y219_R214H],1.85
10,GEEIKDMLWLS [OTC_Y55_Y55D],0.913
11,NDDDVYRSLEE [VAV2_Y142],1.19
12,PLGPLYASSNP [INSR_Y992],0.96
13,AGIENYTSRFG [NKD2_Y256],0.569
14,VCDALYPPGPP,0.779
15,EVESPYEVRDY [GIGYF2_Y1168_H1171R],1.23
16,RPDSPYSRPHD [DOK2_Y271],0.71
17,EPVSDYINASI [PTPN11_Y304_N308S],1.05

row,Sequence,phosphorylation enrichment
1,RIFDFYSARKA [STOX1_Y858_YF],1.21
2,SFPPTYRFERG [INPPL1_Y661_YF],0.638
3,SLEKSYELLDG [ACTB_Y240_P243L],1.16
4,LKSEMYQKLLK [RGS13_Y146],1.34
5,PELINYHQPNS [BTK_Y361_H364P],0.928
6,ISTAGYSFPEL [EDAR_Y406_I408F],0.886
7,GSSEGYLHMVH [NIPBL_Y247_D246G],0.616
8,NCLREYVAGRF [CRB1_Y711],0.702
9,LFIDSYEKDVA [PGM1_Y521_YF],2.09
10,WDLSEYSFKDP [ITGA3_Y237_YF],2.14
11,AARVSYWLASG [DCHS1_Y1582_R1583W],1.18
12,LITTLYIDFLG [KCNQ1_Y267_G269D],1.42
13,CPSLLYSPVSS [CAMKK2_Y128_P127L],1.44
14,GEEIKYMLWLS [OTC_Y55],1.24
15,MGRVNYGAYIN [GLB1_Y485],0.701
16,LDPMVYMNDTS [PTK2B_Y834_K838T],0.958
